Source: the supplement of paper PMC9732359
± gives the uncertainty stated by the source.

Assay: protein stability index of a GFP-peptide fusion (yeast GPS) (PSI 1-4); higher = more stable; sorted into four equal gates, so the index is relative within each strain
Method in brief: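 For each peptide, the protein stability index sums the read frequency in every gate after multiplying it by the gate number. Read frequencies came from plasmids that were PCR-amplified from each gate and Illumina-sequenced, with reads assigned to strains by barcodes. The gates were four equal bins of GFP/Cherry fluorescence ratio applied to mid-log yeast in leucine-free medium carrying a pooled library of tiled 17-residue yeast protein peptides fused downstream of GFP on a Cherry-expressing plasmid.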

| Sequence | protein stability index (doa10∆) | protein stability index (pdr5∆) | protein stability index (san1∆) | protein stability index (ubr1∆) |
| --- | --- | --- | --- | --- |
| RSISWAPSIGRWYQLIA [YGL100W/SEH1] | 1.26 ± 0.072 | 1.15 ± 0.075 | 1.16 ± 0.12 | 1.11 ± 0.063 |
| ADAGIELVDMAGAGEAN [MTR3] | 2.76 ± 0.11 | 2.69 ± 0.084 | 2.32 ± 0.1 | 2.9 ± 0.086 |
| TRKILEILNECHDELKA [MED4] | 2.04 ± 0.071 | 2.5 ± 0.13 | 2.44 ± 0.085 | 2.71 ± 0.097 |
| FLKKVMDTIQDKLINDV [ECM29] | 3.08 ± 0.16 | 3.58 ± 0.2 | 2.95 ± 0.2 | 3.34 ± 0.15 |
| TSPTMPDYYVSILSFVD [RPT2] | 2.2 ± 0.048 | 2.31 ± 0.05 | 2.27 ± 0.042 | 2.15 ± 0.041 |
| TPYSNESGLVNADLDVK [RPO21] | 2.75 ± 0.054 | 2.96 ± 0.073 | 3.02 ± 0.056 | 2.87 ± 0.046 |
| QEAFKIYQHLASHNEKD [SRP72] | 1.89 ± 0.082 | 3.08 ± 0.1 | 2.93 ± 0.15 | 2.89 ± 0.1 |
| YSLQPSVDITGGPWFTD [RPC34] | 1.89 ± 0.079 | 2.54 ± 0.12 | 2.86 ± 0.089 | 2.49 ± 0.064 |
| NGTMINEVIDKLKNENT [PCI8] | 2.84 ± 0.056 | 2.91 ± 0.052 | 2.84 ± 0.047 | 3.09 ± 0.037 |
| ASLGIGLAAMGSANIEV [RPN2] | 1.65 ± 0.088 | 1.76 ± 0.079 | 1.74 ± 0.091 | 1.53 ± 0.067 |
| QQQQQNQQQQNQQPQQQ [SWI1] | 2.99 ± 0.041 | 3.06 ± 0.043 | 2.88 ± 0.032 | 2.85 ± 0.038 |
| VLITSYEMVIREKNALK [ISW2] | 2.33 ± 0.043 | 2.53 ± 0.053 | 2.37 ± 0.045 | 2.78 ± 0.043 |
| VKLLKTTVPIVSKKRQK [POP3] | 3.2 ± 0.1 | 2.95 ± 0.069 | 2.87 ± 0.083 | 2.74 ± 0.07 |
| HKKIKVAQPDSLRETNT [SIR2] | 3.33 ± 0.13 | 3.25 ± 0.11 | 2.6 ± 0.092 | 3.2 ± 0.053 |
| TPSTEESRAQNVFGQDN [SWI3] | 2.58 ± 0.092 | 2.77 ± 0.093 | 3.35 ± 0.054 | 2.55 ± 0.048 |
| SDAQSNLGSNVRNSFPL [REC8] | 3.01 ± 0.07 | 3.12 ± 0.11 | 2.87 ± 0.082 | 3.07 ± 0.055 |
| IVRDLDRPGSKFHKREV [RPL3] | 3.07 ± 0.14 | 3.44 ± 0.28 | 2.92 ± 0.3 | 3.14 ± 0.16 |
| EDIIKRTSPIDNVSNTH [NUT2] | 2.87 ± 0.062 | 2.88 ± 0.06 | 3.01 ± 0.083 | 3.04 ± 0.049 |
| VQDALLTNQLYKNHELL [SNF2] | 3.19 ± 0.068 | 3.1 ± 0.072 | 3.08 ± 0.044 | 3.14 ± 0.061 |
| YYSRITLLRLNELLDLT [RPN5] | 2.61 ± 0.067 | 1.77 ± 0.048 | 2.44 ± 0.065 | 1.97 ± 0.072 |
| LCVLDYDNIDIQRGRIL [RPB7] | 1.96 ± 0.1 | 1.93 ± 0.1 | 3.08 ± 0.13 | 2.42 ± 0.12 |
| IPKPRTAGKTSVKSART [SNF2] | 3.38 ± 0.1 | 3.26 ± 0.069 | 2.89 ± 0.065 | 3.09 ± 0.048 |
| EMIDSHIKEASEEVDDL [SNF2] | – | 2.81 ± 0.19 | 2.81 ± 0.094 | 3.09 ± 0.07 |
| REGLIDTAVKTAETGYI [RPO21] | 1.13 ± 0.058 | 1.37 ± 0.099 | 1.23 ± 0.18 | 1.13 ± 0.051 |
| TPRGNHWMGSSVSGSPR [YMR129W/POM152] | 3.25 ± 0.077 | 3.39 ± 0.077 | 3.01 ± 0.053 | 3.13 ± 0.064 |
| IADKTTYDKETITDLIE [SIR4] | 3.3 ± 0.063 | 3.33 ± 0.064 | 3.42 ± 0.051 | 3.27 ± 0.05 |
| LNDTTEKSKALESEIAS [SMC2] | 3.53 ± 0.19 | 3.34 ± 0.14 | 3.43 ± 0.086 | 3.18 ± 0.086 |

| Sequence | protein stability index (doa10∆) | protein stability index (pdr5∆) | protein stability index (san1∆) | protein stability index (ubr1∆) |
| --- | --- | --- | --- | --- |
| NAEATKEEFSSAENRDE [CSE2] | 3.14 ± 0.082 | 3.25 ± 0.086 | 3.35 ± 0.059 | 3.28 ± 0.069 |
| YEGMKLGNHAITIDSVV [YMR129W/POM152] | 2.27 ± 0.094 | 1.36 ± 0.12 | 1.64 ± 0.16 | 2 ± 0.15 |
| FLYVLIPAGIYWYWWKN [QCR8] | 1.93 ± 0.11 | 1.33 ± 0.13 | 1.62 ± 0.21 | 1.35 ± 0.27 |
| LGLFIHKISFSGTKSEV [YJL039C/NUP192] | 1.86 ± 0.072 | 2.14 ± 0.055 | 1.88 ± 0.085 | 2.12 ± 0.052 |
| QSVYNDEKLKTEKLKND [SRB8] | – | 3.74 ± 0.21 | 3.21 ± 0.18 | 3.36 ± 0.22 |
| FVHYGEIKNDFIMVKGC [RPL3] | 2.06 ± 0.094 | 2.14 ± 0.067 | 2.1 ± 0.1 | 2.38 ± 0.076 |
| KAIELLEKALQGATNEG [SRP72] | – | 1.14 ± 0.18 | – | 1.18 ± 0.22 |
| LVALKRNADELSSYQKK [PRE5] | 2.4 ± 0.048 | 2.43 ± 0.041 | 2.68 ± 0.043 | 2.28 ± 0.033 |
| SLAQNDCNSALDQLLVL [RPN5] | 2.15 ± 0.048 | 2.35 ± 0.053 | 2.15 ± 0.053 | 2.37 ± 0.05 |
| KEDSTIQDSNGDVKNME [SWI3] | 3.09 ± 0.11 | 3.38 ± 0.087 | 2.71 ± 0.093 | 3.17 ± 0.058 |
| NLRRHSDIVLDKKVTLI [SIN4] | 2.47 ± 0.05 | 3.05 ± 0.042 | 2.87 ± 0.034 | 2.68 ± 0.038 |
| VYSVDPLEKITDAYLDQ [PRP8] | 3.33 ± 0.17 | 3.11 ± 0.15 | 2.98 ± 0.1 | 3.15 ± 0.15 |
| NDHSKSANPKKTTITRV [SWI3] | 2.9 ± 0.11 | 3.09 ± 0.092 | 3.14 ± 0.08 | 2.97 ± 0.051 |
| TCDEIQNFENDFSLRYI [REC8] | 2.52 ± 0.14 | 2.12 ± 0.28 | 3.35 ± 0.15 | 2.88 ± 0.28 |
| RFYQLGVDLKLKYSKRR [CSN12] | 1.26 ± 0.12 | 1.16 ± 0.1 | – | 1.15 ± 0.088 |
| DDTWYNLTEFVQMDKIR [AAR2] | 2.82 ± 0.11 | 2.88 ± 0.081 | 2.79 ± 0.061 | 2.83 ± 0.084 |
| NVVEVMDMNEIEDKENS [RPT5] | 3.02 ± 0.087 | 2.58 ± 0.066 | 2.26 ± 0.067 | 2.71 ± 0.059 |
| LKILKQVMEEKLDENNA [PUP2] | – | – | 2.8 ± 0.23 | – |
| YSLRLINKEIFHHWLVE [SRB8] | 1.75 ± 0.064 | 1.52 ± 0.081 | 1.55 ± 0.13 | 1.59 ± 0.068 |
| VEEYTWSSLLNEGLVEY [RPB2] | – | 3.2 ± 0.18 | 3.11 ± 0.089 | – |
| MASGSTTFTKVAAKWNT [PRP8] | 2.58 ± 0.072 | 2.52 ± 0.069 | 2.51 ± 0.084 | 2.93 ± 0.07 |
| VSPTVGKLFSDIKVLKR [YIL149C/MLP2] | 2.96 ± 0.08 | 3.29 ± 0.077 | 3.11 ± 0.06 | 3.17 ± 0.039 |
| TQMDGFDQSTNVKVIMA [RPT3] | 2.28 ± 0.062 | 2.35 ± 0.06 | 1.54 ± 0.077 | 2.31 ± 0.061 |
| IKEKVQFNATINPESRE [ITC1] | 1.67 ± 0.046 | 1.6 ± 0.044 | 1.97 ± 0.073 | 2.07 ± 0.037 |
| EEATTEEAGEEEAKEEV [RPS0A] | 2.69 ± 0.11 | 2.78 ± 0.17 | – | – |
| VREHYLRSDIPCLSRSC [DIS3] | 2.6 ± 0.051 | 2.72 ± 0.051 | 2.59 ± 0.051 | 2.44 ± 0.033 |
| STGLKNASDALKGRVVE [RPS1B] | 3.21 ± 0.15 | 3.04 ± 0.099 | 2.91 ± 0.12 | 2.67 ± 0.07 |
